Reference: article PMC5316841

Target: Fbxw7 (UniProt Q969H0)
Assay: anti-FLAG co-IP, HSF1 immunoblot
Conditions: reference: wild type HSF1; sites S303

- binding against the reference: weaker
Substance: HSF1 (from UniProt Q00613) HSF1 S303A
